The values that follow come from US20100248309A1.

This test addresses elastase. In words: Given as 'coupling constant'. Second-order association with elastase, 8 nM each, residual elastase activity on succinyl-Ala-Ala-Ala-pNA at 410 nm over 1-10 min (Beatty et al.).

What is called kon is the second-order rate constant of association. Low readings indicate slower complex formation, high ones faster complex formation.

“wild type E. coli recombinant AT (human alpha-1-antitrypsin) (from UniProt P01009 26-418)”: the kon came to 1.6e+06 M⁻¹ s⁻¹.

On to “Mutant recombinant AT K168C/F189C (with disulfide bond) (human alpha-1-antitrypsin mutein) (from UniProt P01009 25-418)”, for which the kon stood at 1.8e+06 M⁻¹ s⁻¹.

In turn, “Mutant recombinant AT F51L/M374I (human alpha-1-antitrypsin mutein, Korean Patent No. 133252) (from UniProt P01009 25-418)” had a kon of 1.7e+06 M⁻¹ s⁻¹. The kon values of the last two substances are within 1.5-fold of each other.

In the case of “Human blood plasma AT (alpha-1-antitrypsin, A9204, Sigma) (from UniProt P01009 25-418)”, the kon worked out at 1.7e+06 M⁻¹ s⁻¹.
